Experimental data reported in paper PMC3206816.
Where “and” joins values, the source holds several entries; their conditions need not be identical. Equal entries are not always repeated.

Legend:
[1] = target: full-length HIV-1 Nef (RP14) (HIV-1); experiment: cross-linking; purified Nef with glutaraldehyde (0.0%, 0.025%, 0.05%, 0.075%, 0.1%) on ice for 15 minutes; 12% SDS-PAGE, silver stain and western blot with anti-His antibody
[2] = target: full-length HIV-1 Nef (RP14) (HIV-1); experiment: crystal structure; hanging drop, Nef at ~3.7 mg/ml; 0.1 M Tris pH 8.5, 0.2 M ammonium sulfate, 20% PEG 8000; space group P6(3)22, two chains in the asymmetric unit, tetramer with 4-fold symmetry formed through crystal symmetry; 3.5 Å

full-length HIV-1 Nef (RP14) (natural protein)
stoichiometry N [1]: 2 and 4
stoichiometry N [2]: 4
